Laboratory results as given in patent US20050260693A1 (MOUNT SINAI SCHOOL OF MEDICINE, published 2005).
Where no end group is shown, it is not given here. [ ]: non-standard residue; d: D form. pS = N[C@@H](COP(=O)(O)O)C(=O)O

T1: GST-322 fusion protein
T1 sequence: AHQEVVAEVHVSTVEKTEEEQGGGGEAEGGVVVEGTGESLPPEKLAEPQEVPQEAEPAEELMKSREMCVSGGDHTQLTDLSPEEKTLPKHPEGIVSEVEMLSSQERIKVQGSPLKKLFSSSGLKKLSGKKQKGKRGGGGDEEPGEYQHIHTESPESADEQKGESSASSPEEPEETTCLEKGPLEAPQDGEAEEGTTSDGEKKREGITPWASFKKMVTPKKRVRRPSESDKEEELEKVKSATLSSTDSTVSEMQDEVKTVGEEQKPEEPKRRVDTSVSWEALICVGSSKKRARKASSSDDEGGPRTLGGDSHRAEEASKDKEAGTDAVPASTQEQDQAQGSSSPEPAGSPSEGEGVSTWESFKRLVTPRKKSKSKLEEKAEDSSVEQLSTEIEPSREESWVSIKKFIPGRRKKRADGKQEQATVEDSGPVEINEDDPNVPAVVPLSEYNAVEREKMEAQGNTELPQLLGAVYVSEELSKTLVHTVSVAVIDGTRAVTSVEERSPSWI

T2: GST-322 prephosphorylated by PKC
T2 sequence: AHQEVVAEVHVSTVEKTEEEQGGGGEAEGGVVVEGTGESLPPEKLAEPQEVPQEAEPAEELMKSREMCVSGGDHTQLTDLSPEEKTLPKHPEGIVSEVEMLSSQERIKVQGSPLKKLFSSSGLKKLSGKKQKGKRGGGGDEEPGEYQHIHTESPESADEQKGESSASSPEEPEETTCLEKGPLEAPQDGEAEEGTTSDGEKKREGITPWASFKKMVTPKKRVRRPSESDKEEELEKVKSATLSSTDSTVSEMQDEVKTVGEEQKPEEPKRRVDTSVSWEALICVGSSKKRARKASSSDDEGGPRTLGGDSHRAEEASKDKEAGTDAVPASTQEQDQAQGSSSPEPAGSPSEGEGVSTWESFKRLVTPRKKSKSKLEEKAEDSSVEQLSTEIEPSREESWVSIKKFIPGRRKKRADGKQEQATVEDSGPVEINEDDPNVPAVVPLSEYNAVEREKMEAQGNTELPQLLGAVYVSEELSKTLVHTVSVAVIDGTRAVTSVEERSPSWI


What was measured:
[1] = system: T1, GST-322 fusion protein
[2] = system: T2, GST-322 prephosphorylated by PKC; test: GST pull-down of PKC with phosphatidylserine; against the unphosphorylated fusion protein
[3] = target: cyclin D1 (endogenous and ectopic) of S24, S24/D1, S24/V and V3 cells (UniProt P25322); test: GST pull-down with mutated GST-SSeCKS2
Chain of cyclin D1 (endogenous and ectopic) of S24, S24/D1, S24/V and V3 cells (UniProt P25322) (P25322 whole entry): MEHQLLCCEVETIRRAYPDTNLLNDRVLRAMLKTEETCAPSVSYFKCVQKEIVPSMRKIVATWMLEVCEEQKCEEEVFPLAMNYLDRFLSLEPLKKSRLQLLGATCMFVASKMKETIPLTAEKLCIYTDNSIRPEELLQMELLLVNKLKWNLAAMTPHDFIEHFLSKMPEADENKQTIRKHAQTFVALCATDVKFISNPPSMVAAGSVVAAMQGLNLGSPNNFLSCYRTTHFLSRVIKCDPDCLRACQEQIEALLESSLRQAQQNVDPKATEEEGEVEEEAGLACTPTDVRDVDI

[4] = target: T3, cyclin D1 (endogenous and ectopic) of S24, S24/D1, S24/V and V3 cells (UniProt P25322 1-295); test: cell-based or functional assay
T3 sequence (P25322 whole entry): as above

[5] = target: T3, cyclin D1 (endogenous and ectopic) of …; test: cell-based or functional assay; remark: listed apart in the source

Molecule	reduction of cyclin D1 binding against wild-type GST-SSeCKS2 [3] [%]	% of cells showing nuclear staining of cyclin D1, S24/D1, -TET, peptide 100 µg/ml for 4 h [5] [%]	other results
purified rabbit brain PKC	–	–	in vitro phosphorylation by PKC ([32P]ATP, SDS-PAGE and autoradiography) [1]: purified rat brain PKC containing α, β, and δ isoforms could phosphorylate GST-322 protein in vitro; fold decrease of binding after prephosphorylation by PKC [2]: Prephosphorylation of GST-322 by PKC decreases this binding at least 10-fold
GST-SSeCKS2 with upstream KK mutated to SS (protein, not shown: a dimerising Fc or GST) AHQEVVAEVHVSTVEKTEEEQGGGGEAEGGVVVEGTGESLPPEKLAEPQEVPQEAEPAEELMKSREMCVSGGDHTQLTDLSPEEKTLPKHPEGIVSEVEMLSSQERIKVQGSPLSSLFSSSGLKKLSGKKQKGKRGGGGDEEPGEYQHIHTESPESADEQKGES	70	–	–
GST-SSeCKS2 with downstream KK mutated to SS (protein, not shown: a dimerising Fc or GST) AHQEVVAEVHVSTVEKTEEEQGGGGEAEGGVVVEGTGESLPPEKLAEPQEVPQEAEPAEELMKSREMCVSGGDHTQLTDLSPEEKTLPKHPEGIVSEVEMLSSQERIKVQGSPLKKLFSSSGLSSLSGKKQKGKRGGGGDEEPGEYQHIHTESPESADEQKGES	70	–	–
RQIKIWFQNRRMKWKKLKKLFSSSGLKKLSGK (also: N-terminal biotin on half of the product) [penetratin-linked wt SSeCKS CY peptide]	–	82	increase in cyclin D translocation to nuclei, S24/D1 cells incubated 4 h with peptide [4]: ~2 fold
RQIKIWFQNRRMKWKKLSSSFSSSGLSSSSGK (also: N-terminal biotin on half of the product) [penetratin-linked mutated CY peptide (K→S)]	–	30	–
RQIKIWFQNRRMKWKKLKKLF[pS]SSGLKKL[pS]GK (also: N-terminal biotin on half of the product) [penetratin-linked phosphoserine CY peptide]	–	39	–
